The supplement of paper PMC9876800

Test system: peptide library, one residue held at a place counted from the S/T acceptor
Assay: relative phosphorylation of the sub-library (ratio to the mean residue at this position); higher = residue favoured
Details: human
Method in brief: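 In 384-well plates, purified recombinant kinases (human or orthologue constructs) were incubated for 90 min under kinase-specific conditions with 50 μM biotinylated degenerate peptide sub-libraries and 50 μM ATP spiked with γ-32P-ATP. Each sub-library fixed a single residue at one position around a central Ser/Thr. Relative sub-library phosphorylation, measured by phosphorimaging and densitometry of streptavidin membrane spots, is given as a ratio to the mean residue at that position.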

RPS6KA3, construct: Full length, sequence (P51812 whole entry, looked up): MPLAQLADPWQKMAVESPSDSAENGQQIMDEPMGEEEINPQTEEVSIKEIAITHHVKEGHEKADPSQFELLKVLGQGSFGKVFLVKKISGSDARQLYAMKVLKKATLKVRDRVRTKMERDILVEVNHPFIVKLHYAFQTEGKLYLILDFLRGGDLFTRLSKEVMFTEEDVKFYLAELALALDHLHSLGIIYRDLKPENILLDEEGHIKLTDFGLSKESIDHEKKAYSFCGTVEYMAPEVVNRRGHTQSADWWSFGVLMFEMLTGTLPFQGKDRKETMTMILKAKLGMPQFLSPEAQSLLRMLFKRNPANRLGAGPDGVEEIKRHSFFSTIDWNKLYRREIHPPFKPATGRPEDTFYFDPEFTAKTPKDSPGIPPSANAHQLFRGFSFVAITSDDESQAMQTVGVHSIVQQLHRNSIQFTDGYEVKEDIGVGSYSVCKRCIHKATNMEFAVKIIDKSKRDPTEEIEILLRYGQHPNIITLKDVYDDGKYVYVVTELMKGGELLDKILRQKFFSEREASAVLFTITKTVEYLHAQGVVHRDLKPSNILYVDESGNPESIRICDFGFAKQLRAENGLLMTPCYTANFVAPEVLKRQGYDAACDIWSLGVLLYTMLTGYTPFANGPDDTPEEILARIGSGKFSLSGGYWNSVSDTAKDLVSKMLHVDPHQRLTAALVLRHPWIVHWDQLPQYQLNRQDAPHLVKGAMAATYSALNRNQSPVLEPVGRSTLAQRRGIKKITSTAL
IRAK1, construct: aa186-530, sequence (P51617 186-530, looked up): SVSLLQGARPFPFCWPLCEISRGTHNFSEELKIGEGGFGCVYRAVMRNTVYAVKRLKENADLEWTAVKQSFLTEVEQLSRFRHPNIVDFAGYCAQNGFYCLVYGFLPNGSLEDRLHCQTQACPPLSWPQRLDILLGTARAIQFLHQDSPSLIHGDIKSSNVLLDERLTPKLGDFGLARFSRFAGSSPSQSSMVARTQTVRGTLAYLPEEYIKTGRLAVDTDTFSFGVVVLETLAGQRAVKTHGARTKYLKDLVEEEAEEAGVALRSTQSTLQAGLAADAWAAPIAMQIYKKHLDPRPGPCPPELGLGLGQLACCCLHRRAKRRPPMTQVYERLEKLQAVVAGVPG

RPS6KA3, construct: Full length (from UniProt P51812)
relative phosphorylation
Details	at +1	at +2	at +3	at +4	at -1	at -2	at -3	at -4	at -5
A fixed	0.876	1.48	0.988	1.03	0.917	0.555	0.652	1.08	0.961
D fixed	0.617	1.08	1.48	1.39	0.636	0.658	0.452	0.62	0.501
E fixed	0.97	0.833	1.58	1.24	0.466	0.617	0.402	0.76	0.4
F fixed	0.848	0.548	0.78	0.679	0.709	0.568	0.327	0.682	0.703
G fixed	0.704	1.17	1.21	1.17	1.13	0.85	0.555	1.15	1.01
H fixed	1.16	1.34	1.14	0.914	1.01	0.979	0.566	0.911	0.892
I fixed	1.2	0.77	0.666	0.826	0.652	0.615	0.373	0.834	0.762
K fixed	1.16	1.08	0.972	1.17	1.49	2.6	1.7	1.8	2.04
L fixed	0.927	0.732	0.905	0.652	0.906	0.976	0.37	0.811	0.944
M fixed	1.1	0.727	0.722	0.828	0.933	0.614	0.291	0.99	0.736
N fixed	0.957	0.985	0.827	0.902	1.02	0.708	0.464	0.855	0.719
P fixed	0.432	0.677	0.997	1.6	2.36	0.457	0.785	0.863	0.951
Q fixed	1.22	0.716	0.808	0.895	0.935	0.962	0.641	1.01	0.836
R fixed	1.34	1.59	1.11	1.26	1.39	4.29	8.12	2.46	3.13
V fixed	1.45	1.07	0.839	0.941	0.752	0.591	0.393	0.698	0.852
W fixed	0.887	0.858	0.998	0.738	0.628	0.361	0.408	0.725	0.807
Y fixed	1.15	1.34	0.979	0.762	1.06	0.601	0.498	0.753	0.748
pThr fixed	1.89	1.03	1.64	2.38	0.318	0.319	0.343	0.719	0.648
pTyr fixed	1.7	1.14	2.08	1.47	0.543	0.3	0.306	0.448	0.668

IRAK1, construct: aa186-530 (from UniProt P51617)
relative phosphorylation
Details	at +1	at +2	at +3	at +4	at -1	at -2	at -3	at -4	at -5
A fixed	0.864	0.732	0.528	0.839	0.549	1.22	1.05	0.838	0.984
D fixed	0.289	0.355	0.361	0.391	0.359	0.433	0.405	0.63	0.557
E fixed	0.435	1.03	0.316	0.501	0.236	0.423	0.57	0.668	0.629
F fixed	1.34	0.929	1.71	0.843	1.69	1.07	1.02	1.17	1.09
G fixed	1.28	0.501	0.55	0.766	0.4	0.801	0.874	0.846	1.01
H fixed	0.703	1.2	0.889	1.13	1.34	1.12	1.55	1.08	1.3
I fixed	2.14	2.49	1.84	1.27	0.864	1.08	1.19	1.29	1.38
K fixed	0.885	0.442	0.719	1.32	0.789	0.64	1.02	1.06	1.01
L fixed	1.25	0.867	1.22	1.13	0.847	1.67	1.11	1.09	0.973
M fixed	1.59	1.07	1.56	1.17	1.02	1.78	1.43	1.08	1.12
N fixed	0.604	0.781	0.558	0.806	0.776	1.47	0.918	1.33	0.973
P fixed	0.159	0.336	0.221	0.969	0.287	0.495	0.464	0.559	0.696
Q fixed	1.08	0.734	0.567	0.766	0.527	0.957	0.954	0.813	0.845
R fixed	1.05	0.633	1.04	1.75	1.53	1.16	1.5	0.988	1.29
V fixed	1.69	1.95	1.07	0.745	0.863	0.788	0.849	1.16	1.07
W fixed	0.854	1.37	2.17	1.54	2.85	0.745	0.9	1.11	0.809
Y fixed	0.799	1.58	1.69	1.06	2.08	1.13	1.21	1.27	1.27
pThr fixed	0.544	0.539	0.403	0.473	0.484	0.857	0.765	1.09	0.722
pTyr fixed	0.357	0.562	0.482	0.464	0.522	0.756	1.19	0.831	0.843
